Data: patent US20210060116A1 (published 2021)

Key:
[1] = molecular target: T1, Recombinant human p65 protein (r-p65) with DDK tag (catalog number TP320780) (human, UniProt Q04206 1-551); experiment: score table: the mark stands in the column <3 of KD (uM)
T1 construct: mature; also called r-p65-DDK; human r-p65; not shown: DDK tag

[2] = molecular target: Recombinant human p65 protein (r-p65) with DDK tag (catalog number TP320780) (human) (UniProt Q04206); experiment: plate ELISA, Scatchard analysis by the method of Friguet et al.
Chain of Recombinant human p65 protein (r-p65) with DDK tag (catalog number TP320780) (human) (Q04206 whole entry): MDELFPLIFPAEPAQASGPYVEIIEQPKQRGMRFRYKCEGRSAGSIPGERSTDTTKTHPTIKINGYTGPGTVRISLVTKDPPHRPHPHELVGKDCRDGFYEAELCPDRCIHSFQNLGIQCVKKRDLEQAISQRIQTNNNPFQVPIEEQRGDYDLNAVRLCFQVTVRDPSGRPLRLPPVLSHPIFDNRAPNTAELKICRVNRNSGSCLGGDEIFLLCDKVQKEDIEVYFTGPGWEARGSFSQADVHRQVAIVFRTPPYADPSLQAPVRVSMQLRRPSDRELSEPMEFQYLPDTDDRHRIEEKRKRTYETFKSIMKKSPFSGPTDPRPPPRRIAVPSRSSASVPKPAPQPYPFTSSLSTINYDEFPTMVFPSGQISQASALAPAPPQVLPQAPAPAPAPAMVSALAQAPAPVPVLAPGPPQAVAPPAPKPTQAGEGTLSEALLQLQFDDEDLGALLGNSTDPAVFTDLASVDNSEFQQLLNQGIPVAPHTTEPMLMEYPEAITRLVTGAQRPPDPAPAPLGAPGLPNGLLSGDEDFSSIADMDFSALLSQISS

[3] = molecular target: Recombinant human p65 protein (r-p65) with DDK tag (catalog number TP320780) (human) (UniProt Q04206); experiment: plate ELISA, peptide 20-640 µM and r-p65, anti-DDK detection; at the lowest concentration evaluated
[4] = molecular target: T1, Recombinant human p65 protein (r-p65) …; experiment: score table: the mark stands in the column >3 of KD (uM)

T1 sequence (Q04206 whole entry): as above

Ac-EPAPLAPYG-NH2 (also called Analog 3; GA-2) [PGA-2] was tested, and the Kd [1] was less than 3000 nM.

Ac-APKPYQPRG-NH2 [GA-1 (GILZ analog 1, as labelled in Examples 3 to 6)] showed a Kd [2] of 2290 nM and a percent bound r-p65 [3] greater than 25%.

Ac-EPAPLAPYG-NH2 [GA-2 (GILZ analog 2, as labelled in Examples 3 to 6)] was tested, and the Kd [2] was 3240 nM and the percent bound r-p65 [3] was greater than 25%.

For Ac-EPAPEQPDG-NH2 (also called Analog 8) [PGA-5], the Kd [4] was greater than 3000 nM.

In the case of Ac-APKPYQPRG-NH2 (also called Analog 20; GA-1) [PGA-1], the Kd [4] is reported as greater than 3000 nM.

Ac-EPAPYQPEG-NH2 (also called Analog 14) [PGA-3] showed a Kd [4] greater than 3000 nM.

Ac-EPAPESPQV-NH2 (also called Analog 7) [PGA-4] was tested, and the Kd [4] was greater than 3000 nM.
